According to paper doi:10.1101/2022.03.12.484092:

Target: SARS-CoV-2 nucleocapsid N-terminal domain (NTD) (SARS-CoV-2, UniProt P0DTC9 41-174)
Test: fluorescence intensity titration

B1: 10-mer RNA (ssRNA)
RNA: UCUCUAAACG
binding result: binds
